Our source for the interaction score values is publication PMC10397247.

One assay addresses T1, P7SHb.
T1 chain: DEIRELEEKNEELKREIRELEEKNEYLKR
The experiment in a line: two-hybrid library CCNG1.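 Further: natural log of median RNA to DNA barcode read ratio; higher means stronger binding.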

Another assay concerns the target T2, P8SHb.
T2 chain: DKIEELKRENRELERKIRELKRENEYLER
The experiment in a line: two-hybrid library CCNG1.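 Further: natural log of median RNA to DNA barcode read ratio; higher means stronger binding.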

The next assay concerns the target T3, P9SHb.
T3 chain: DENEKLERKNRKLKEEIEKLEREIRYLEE
The experiment in a line: two-hybrid library CCNG1.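 Further: natural log of median RNA to DNA barcode read ratio; higher means stronger binding.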

The target of another assay is T4, 4H3298-bN.
T4 chain: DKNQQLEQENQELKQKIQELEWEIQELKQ
Kind of assay: two-hybrid library CCNG1.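 Further: natural log of median RNA to DNA barcode read ratio; higher means stronger binding.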

In another assay the target is T5, 4H3462-bN.
T5 chain: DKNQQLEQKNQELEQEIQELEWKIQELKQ
The experiment in a line: two-hybrid library CCNG1.

A further assay deals with T6, 4H3497-bN.
T6 chain: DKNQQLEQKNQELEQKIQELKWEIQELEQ
The experiment in a line: two-hybrid library CCNG1.

The next assay concerns the target T7, 4H3613-bN.
T7 chain: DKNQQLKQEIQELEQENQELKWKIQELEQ
Kind of assay: two-hybrid library CCNG1.

Another assay has as its target T8, 4H3628-bN.
T8 chain: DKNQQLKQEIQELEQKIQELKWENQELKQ
The experiment in a line: two-hybrid library CCNG1.

The next assay has as its target T9, 4H3926-bN.
T9 chain: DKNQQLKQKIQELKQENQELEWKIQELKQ
Kind of assay: two-hybrid library CCNG1.

The next assay deals with T10, 4H591-bN.
T10 chain: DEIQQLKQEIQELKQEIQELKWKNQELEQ
The experiment in a line: two-hybrid library CCNG1.

The next assay concerns the target T11, 4H626-bN.
T11 chain: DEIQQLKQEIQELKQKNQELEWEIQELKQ
Kind of assay: two-hybrid library CCNG1.

The target in a further assay is T12, 4H906-bN.
T12 chain: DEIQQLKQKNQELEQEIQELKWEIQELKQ
Kind of assay: two-hybrid library CCNG1.

The next assay has as its target T13, 4H56-bA.
T13 chain: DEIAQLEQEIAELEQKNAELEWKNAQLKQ
The experiment in a line: two-hybrid library CCNG1.

Another assay has as its target T14, 4H730-bA.
T14 chain: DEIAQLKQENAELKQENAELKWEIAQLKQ
The experiment in a line: two-hybrid library CCNG1.

For the next assay, the target named is T15, 4H796-bA.
T15 chain: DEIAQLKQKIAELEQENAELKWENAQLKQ
The experiment in a line: two-hybrid library CCNG1.

In a further assay the target is T16, 4H932-bA.
T16 chain: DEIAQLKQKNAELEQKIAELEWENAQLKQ
The experiment in a line: two-hybrid library CCNG1.

The target in another assay is T17, 4H949-bA.
T17 chain: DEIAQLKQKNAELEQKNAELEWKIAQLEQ
The experiment in a line: two-hybrid library CCNG1.

The next assay addresses T18, P2-AA-1HAA-D.
T18 chain: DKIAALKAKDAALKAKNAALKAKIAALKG
Kind of assay: two-hybrid library CCmax. As to conditions: mean of both orientations.

In a further assay the target is T19, P2-AA-1HAA-E.
T19 chain: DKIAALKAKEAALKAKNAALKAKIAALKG
The experiment in a line: two-hybrid library CCmax. The conditions noted are these: mean of both orientations.

Another assay concerns the target T20, P2-AA-1HAA-I.
T20 chain: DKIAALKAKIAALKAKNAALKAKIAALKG
Kind of assay: two-hybrid library CCmax. As to conditions: mean of both orientations.

Another assay concerns the target T21, P2-AA-1HAA-T.
T21 chain: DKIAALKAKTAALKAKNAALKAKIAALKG
The experiment in a line: two-hybrid library CCmax. The conditions noted are these: mean of both orientations.

The target of the next assay is T22, P2-AA-1HAA-V.
T22 chain: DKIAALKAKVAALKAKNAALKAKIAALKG
The experiment in a line: two-hybrid library CCmax. As to conditions: mean of both orientations.

The next assay has as its target T23, P2-AA.
T23 chain: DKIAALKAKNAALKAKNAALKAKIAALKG
Kind of assay: two-hybrid library CCmax. The conditions noted are these: mean of both orientations.

In the case of DEIRELEEKNEELKREIRELEEKNEYLKR [P7SHb], the values for the interaction score with P7SHb, in the assay with P8SHb and in the assay with P9SHb were -0.618, 1.18 and 0.021, respectively.
DKNQQLEQENQELKQKIQELEWEIQELKQ [4H3298-bN]: the interaction score with 4H3298-bN was -2.82; with 4H3462-bN it was -0.0887; with 4H3497-bN, -1.06; with 4H3613-bN, -1.42; in the assay with 4H3628-bN it was -0.916; in the assay with 4H3926-bN it was -1.32. The interaction score is -0.882 in the assay with 4H591-bN, -1.27 in the assay with 4H626-bN and -0.217 with 4H906-bN.
With DEIAQLEQEIAELEQKNAELEWKNAQLKQ [4H56-bA], the interaction score was -0.593 in the assay with 4H56-bA; -1.15 with 4H730-bA; -0.775 with 4H796-bA; -0.898 with 4H932-bA; -0.628 in the assay with 4H949-bA; 0.584 in the assay with P7SHb.
As for DEIAALEAEVAALEAENAALEAEIAALEG [P1-AA-1HAA-V], the interaction score in the assay with P2-AA-1HAA-D is 1.95; with P2-AA-1HAA-E, 1.98; with P2-AA-1HAA-I, 2.11; with P2-AA-1HAA-T, 2.16; with P2-AA-1HAA-V it was 2.01; in the assay with P2-AA it was 2.01.
